Laboratory results: article PMC11411725

Biological target: vCCI (viral CC chemokine inhibitor), wild type, from rabbitpox (rabbitpox), O10647
Assay: SEC-MALS
Settings: remark: other sources report otherwise

B1: CCL17 (CC chemokine ligand 17, TARC), wild type, Q92583 24-94 (ligand)
chain: ARGTNVGRECCLEYFKGAIPLRKLKTWYQTSEDCSRDAIVFVTVQGRAICSDPNNKRVKNAVKYLQSLERS
stoichiometry N: 1
